Measurements reported in patent publication US8465945B2, “Method for production and use of mite group 1 proteins” (Merck Patent GmbH, priority 1999, dated 2013).

Columns and labels:
[1] = test system: IgE from mite-allergic dog sera; test: ELISA, binding of IgE from dog sera to coated Der f 1 proteins or mite extracts, detected with FcεR1α-biotin
Description: Native or recombinant Der f 1 proteins in 100 μl CBC buffer (50 mM sodium carbonate, pH 9.6) were coated onto wells (100 ng per well) of Immulon II microtiter plates (available from Dynex Technologies, Chantilly, Va.) by incubation at 4° C., covered, overnight. Excess fluid was removed and wells were blocked with 200 μl Assay Buffer (4% fetal calf serum (available from Summit Laboratories, Fort Collins, Colo.) in phosphate buffered saline (PBS, recipe in Sambrook, ibid.), plus 0.05% Tween-20 (available from Sigma, St. Louis, Mo.)) for one hour at room temperature. Plates were then washed for 4 cycles on an automatic plate washer (Ultrawash, available from Dynatech Laboratories) using PBS with 0.05% Tween-20. […] Control wells were treated identically except that no serum was added. Plates were then washed as described above. Biotinylated human IgE receptor alpha chain (FcεR1α-biotin) (100 μl of 1.3 ng/ml) prepared as described in U.S. Pat. No. 5,945,294, ibid., was added and incubated for one hour at room temperature. After this incubation, plates were washed as described above. Streptavidin-horseradish peroxidase conjugate (0.5 mg/ml, available from KPL Labs, Gaithersburg, Md.) was added at a 1:5000 dilution in Assay Buffer for one hour at room temperature, after which plates were washed as described above. TMB Peroxidase substrate system, 2 part (available from KPL Labs, #0-76-00), added at 100 μl per well, was used according to the manufacturer's directions. The color reaction was allowed to proceed until good color development was reached (about 10-15 min); then the reaction was stopped with 100 μl per well of 1 M phosphoric acid. Bound IgE was determined by measuring absorbance (Optical Density, or OD) at 450 nm (nanometers) using an ELISA plate reader (such as Spectramax”, Molecular Devices, Sunnyvale, Calif.). Background OD readings in the control wells were subtracted from all numbers. Results are reported in Tables 1, 2 and 3 as OD multiplied by 1000. OD numbers greater than 100 are considered to be positive for a reaction with IgE. P. pastoris-expressed proteins are denoted in the Tables as Pichia expressed proteins.

[2] = test system: anti-Der f 1 MAb 6A8 (capture) and anti-Der f 1 MAb 4C1 (detection); test: Monoclonal Capture ELISA; assay type: binding
Description: Assays were carried out as follows. A microtiter plate as described in Example 5 was coated overnight at 4° C. with 100 ng/well of anti-Der f 1 protein monoclonal antibody 6A8, denoted herein as anti-Der f 1 MAb 6A8, provided by Dr. Martin Chapman. The plate was washed in the manner described above. The following proteins were then added to wells, having been diluted in Assay Buffer in a 2-fold dilution series, from 0.75 to 50 ng/well: Heska native Derf1, P. pastoris-expressed PDerf1303b, and E. coli-expressed PDerf1303c. After incubation for 1 hour at room temperature, plates were washed as described in Example 5. Then 100 μl per well of a 1:1000 dilution in Assay Buffer of biotinylated anti-Der f 1 monoclonal antibody 4C1, also denoted anti-Der f 1 MAb 4C1, provided by Dr. Martin Chapman, was added for 1 hour at room temperature. Plates were washed, streptavidin-HRP conjugate was added, and plates were developed as described in Example 5.

[3] = test system: IgE from mite-allergic or normal human sera; test: ELISA, binding of IgE from human sera to coated Der f 1 proteins or mite extracts, detected with FcεR1α-biotin

B1: PDerf1303c: Recombinant pro-form of Der f 1 (SEQ ID NO:35) expressed in E. coli from nDerf1909c, refolded from inclusion bodies (protein, listed as Dermatophagoides farinae)
chain: RPASIKTFEEFKKAFNKNYATVEEEEVARKNFLESLKYVEANKGAINHLSDLSLDEFKNRYLMSAEAFEQLKTQFDLNAETSACRINSVNVPSELDLRSLRTVTPIRMQGGCGSCWAFSGVAATESAYLAYRNTSLDLSEQELVDCASQHGCHGDTIPRGIEYIQQNGVVEERSYPYVAREQRCRRPNSQHYGISNYCQIYPPDVKQIREALTQTHTAIAVIIGIKDLRAFQHYDGRTIIQHDNGYQPNYHAVNIVGYGSTQGVDYWIVRNSWDTTWGDSGYGYFQAGNNLMMIEQYPYVVIM
OD, bound IgE ([1]; Assay Number 1, serum dog pool): 615 OD multiplied by 1000 | OD, bound IgE ([1]; Assay Number 1, serum dog-1): 0 OD multiplied by 1000 | OD, bound IgE ([1]; Assay Number 1, serum dog-2): 258 OD multiplied by 1000 | OD, bound IgE ([1]; Assay Number 1, serum dog-3): 45 OD multiplied by 1000 | OD, bound IgE ([1]; Assay Number 2, dog sera pool A 146): 489 OD multiplied by 1000 | OD, bound IgE ([1]; Assay Number 2, dog sera pool KS338): 68 OD multiplied by 1000 | dog serum samples bound, of those that bound to native Der f 1 proteins ([1]; Table 1): 1 of 2 | OD, protein captured by MAb 6A8 and detected by MAb 4C1 ([2]; 0.75 ng protein per well): 136 OD | OD, protein captured by MAb 6A8 and detected by MAb 4C1 ([2]; 1.5 ng protein per well): 268 OD | OD, protein captured by MAb 6A8 and detected by MAb 4C1 ([2]; 2.5 ng protein per well): 1372 OD | OD, protein captured by MAb 6A8 and detected by MAb 4C1 ([2]; 3.1 ng protein per well): 503 OD | OD, protein captured by MAb 6A8 and detected by MAb 4C1 ([2]; 6.25 ng protein per well): 890 OD | OD, protein captured by MAb 6A8 and detected by MAb 4C1 ([2]; 25 ng protein per well): 1770 OD | OD, protein captured by MAb 6A8 and detected by MAb 4C1 ([2]; 50 ng protein per well): 1983 OD | OD, bound IgE ([3]; Assay Number 1, serum human 1916): 18 OD multiplied by 1000 | OD, bound IgE ([3]; Assay Number 1, serum human3848): 2291 OD multiplied by 1000 | OD, bound IgE ([3]; Assay Number 1, serum human 3958): 147 OD multiplied by 1000 | OD, bound IgE ([3]; Assay Number 1, serum human 3960): 1442 OD multiplied by 1000 | OD, bound IgE ([3]; Assay Number 1, serum human 3961): 67 OD multiplied by 1000 | OD, bound IgE ([3]; Assay Number 1, serum human 3987): 1416 OD multiplied by 1000 | OD, bound IgE ([3]; Assay Number 1, serum human 4289): 29 OD multiplied by 1000 | OD, bound IgE ([3]; Assay Number 1, serum human 4467): 236 OD multiplied by 1000 | OD, bound IgE ([3]; Assay Number 1, serum human 5207): 1902 OD multiplied by 1000 | OD, bound IgE ([3]; Assay Number 1, serum human pool): 883 OD multiplied by 1000 | OD, bound IgE ([3]; Assay Number 2, serum Heska human B): 0 OD multiplied by 1000 | OD, bound IgE ([3]; Assay Number 2, serum Heska human C): 4 OD multiplied by 1000 | OD, bound IgE ([3]; Assay Number 2, serum Heska human D): 0 OD multiplied by 1000 | OD, bound IgE ([3]; Assay Number 2, serum Heska human E): 10 OD multiplied by 1000 | OD, bound IgE ([3]; Assay Number 2, serum Heska human F): 0 OD multiplied by 1000 | OD, bound IgE ([3]; Assay Number 2, serum Heska human G): 0 OD multiplied by 1000 | OD, bound IgE ([3]; Assay Number 2, serum Heska human H): 0 OD multiplied by 1000 | OD, bound IgE ([3]; Assay Number 2, serum Heska human I): 1 OD multiplied by 1000 | OD, bound IgE ([3]; Assay Number 2, serum Heska human J): 0 OD multiplied by 1000 | OD, bound IgE ([3]; Assay Number 2, serum Heska human K): 0 OD multiplied by 1000 | OD, bound IgE ([3]; Assay Number 2, serum Heska human L): 0 OD multiplied by 1000 | OD, bound IgE ([3]; Assay Number 2, serum Heska human M): 0 OD multiplied by 1000 | OD, bound IgE ([3]; Assay Number 2, serum Heska human N): 24 OD multiplied by 1000 | OD, bound IgE ([3]; Assay Number 2, serum Heska human O): 2 OD multiplied by 1000 | OD, bound IgE ([3]; Assay Number 2, serum Heska human P): 0 OD multiplied by 1000 | OD, bound IgE ([3]; Assay Number 2, serum Heska human Q): 0 OD multiplied by 1000 | OD, bound IgE ([3]; Assay Number 2, serum Heska human R): 0 OD multiplied by 1000 | OD, bound IgE ([3]; Assay Number 2, serum human 1916): 21 OD multiplied by 1000 | OD, bound IgE ([3]; Assay Number 2, serum human 3848): 2378 OD multiplied by 1000 | OD, bound IgE ([3]; Assay Number 2, serum human 3958): 247 OD multiplied by 1000 | OD, bound IgE ([3]; Assay Number 2, serum human 3960): 944 OD multiplied by 1000 | OD, bound IgE ([3]; Assay Number 2, serum human 3961): 46 OD multiplied by 1000 | OD, bound IgE ([3]; Assay Number 2, serum human 3987): 1477 OD multiplied by 1000 | OD, bound IgE ([3]; Assay Number 2, serum human 4289): 47 OD multiplied by 1000 | OD, bound IgE ([3]; Assay Number 2, serum human 4467): 277 OD multiplied by 1000 | OD, bound IgE ([3]; Assay Number 2, serum human 5207): 2122 OD multiplied by 1000 | OD, bound IgE ([3]; Assay Number 2, serum human pool): 1161 OD multiplied by 1000 | reactivity: share of human serum samples reactive to native Der f 1 proteins that are also reactive to the recombinant protein ([3]; Table 1, 9 human samples (8 sera and pool), OD numbers greater than 100 positive): 78% | reactivity: share of human serum samples reactive to native Der f 1 proteins that are also reactive to the recombinant protein ([3]; Table 2, 10 human serum samples): 70%
